Measurements taken from patent US7851436.

Molecular target: integrins αVβ3 and αVβ5
Test: inhibition of Ch-1 cell adhesion to coated PIIBNP by synthetic peptide (FIG. 3C)

Binder | IC50 [µM]
GRGDNP [synthetic GRGDNP peptide] | 10
GRADNP [synthetic GRADNP peptide] | 60
